Reference: PMC3101288

Target: HlmI (thioredoxin-disulfide oxidoreductase-like dithiol oxidase of the holomycin gene cluster) (Streptomyces clavuligerus)
Experiment: SEC

Work on “HlmI (thioredoxin-disulfide oxidoreductase-like dithiol oxidase of the holomycin gene cluster) (enzyme)” yielded a stoichiometry N of 2.
